Measurements reported in patent publication US20050277575A1, “Therapeutic compositions and methods for treating diseases that involve angiogenesis” (priority 2004, published 2005).
Where “and” joins values, the source holds several entries; their conditions need not be identical. Equal values may be shown once. Read-outs that look alike come from different tables or passages of the source. Where a SMILES comes first, the peptide text is derived from it.

Experiments:
S100A4 [1] = target: T1, S100A4 (Homo sapiens, UniProt P26447); assay: Modulation of S100A4 dependent tPA-mediated conversion of plasminogen to plasmin by peptides and chimera; format: biochemical; conditions: for IC50: peptides titrated 0.1-100 μM, 1 μM S100A4, read-out: IC50 for inhibition of accelerating effect of S100A4 on t-PA-dependent conversion of plasminogen to plasmin
T1 construct: GST (N); made in house; host or cells: E. coli ER2507
T1 sequence (P26447 whole entry): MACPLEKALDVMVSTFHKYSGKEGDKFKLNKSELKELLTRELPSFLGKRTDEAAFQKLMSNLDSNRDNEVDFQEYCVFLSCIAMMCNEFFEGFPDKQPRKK
Method: (§1) The effects of peptide SEQ ID 6, peptide SEQ ID 38 and chimera SEQ ID 39 on acceleration oft-PA-mediated conversion of plasminogen to plasmin induced by S100A4 were measured. The kinetics of t-PA-mediated plasminogen activation were determined by measuring the amidolytic activity of plasmin formed during activation of plasminogen. All the experiments were done in 100 μl volume in 96-well plates in triplicates. Glu-plasminogen (Calbiochem) at the concentration of 100 nM was preincubated at 25° C. for 1 h in the presence or absence of 1 μM recombinant S100A4 in a buffer consisting of 50 mM Tris-HCl, pH 7.4, 100 mM NaCl and 5 mM CaCl2 or 5 mM EGTA. In some experiments, different concentrations of peptides or chimera were preincubated together with proteins. The reaction was initiated by addition of 5 nM t-PA (Calbiochem) and 125 μM chromogenic plasmin substrate, Chromozym PL (Roche). The reactions were monitored at 405 nm for 1.5 h in a SPECTRAmax PLUS^384 microplate spectrophotometer (Molecular Devices) under control of the SOFTmax PRO kinetic program (Molecular Devices). The initial rates of plasmin generation, during the first 10-15 min, were calculated using linear regression analysis of plots of A405 nm versus time 2. The initial rates of plasmin generation were reported in units (K) of A405 nm/min^2×10^3. […] The titration data were analyzed with the four-parameter logistic equation K=(A−D)/(1+(x/C)^B)D. If A, asymptotic minimum, =0, this equation is converted to the Michaelis-Menten equation K=D/(1+(C/[S])^B), where [S] is substrate concentration, D=Vmax, C=Km, and B is the Hill coefficient.
Peptides SEQ ID 6 and SEQ ID 38 inhibited the accelerating effect of S100A4 on t-PA-dependent conversion of plasminogen to plasmin in concentration—dependent manner.
On the other hand, chimera SEQ ID 39 additionally accelerated plasmin formation already accelerated by S100A4.

S100A4 [2] = target: T1, S100A4; assay: Fluorescence polarization assay of peptide binding with S100A4; conditions: for change of fluorescence polarization upon adding S100A4: same procedure and conditions as for SEQ ID NO 7
Method: The following working buffers have been prepared:
TBS-EGTA: 10 mM TRIS buffer containing 150 mM NaCl, 0.05% bovine serum albumine (BSA), 1 mM EGTA
TBS-Ca: 10 mM TRIS buffer containing 150 mM NaCl, 0.05% bovine serum albumine (BSA), 1 mM CaCl2
10 mM solution of peptide SEQ ID NO 7 in DMSO was diluted with in either TBS-EGTA or TBS-Ca to obtain final peptide concentration 20 nM. Samples of these peptide solutions were placed in 384 well plate (Costar No. 3710), 45 microliters per well. Fluorescence polarization of such samples was determined using Perkin Elmer Wallac EnVision 2100 Multilabel Reader equipped with excitation filter 485 nm and emission filters 535 nm for each channel.
S100A4 has been diluted by either TBS-EGTA or by TBS-Ca to obtain a series of solutions of such concentrations that after adding 5 microliters each solution to 45 microliter peptide samples the final concentration of S100A4 was one of following: 0, 10, 30, 100, 300, 1000, 3000, or 10000 nM. Each sample was prepared in triplicate. The samples were mixed carefully while adding the protein to the peptide, and then they were incubated for 1 h at room temperature. The fluorescence polarization of the samples was determined using the same conditions as for the peptide samples before adding S100A4, and the change of fluorescence polarization of the peptide SEQ ID NO 7 upon adding S100A4 was calculated individually for each sample. The results, average of triplicates, are presentsd on the FIG. 6. The apparent binding constant of peptide SEQ ID NO 7 binding to S100A4 is 236 nM.
The same procedure and conditions have been applied to test binding of peptide SEQ ID NO 9, and peptide SEQ ID NO 10, to S100A4.

[3] = system: Human cerebral endothelial cells (HCEC); assay: Capillary tube formation in Matrigel, S100A4 induced angiogenesis; format: cell-based; conditions: primary HCEC in Matrigel
Source text: Human cerebral endothelial cells (HCEC) were isolated using previously described protocols (Stanimirovic, D., P. Morley, et al. (1996). “Angiotensin II-induced fluid phase endocytosis in human cerebromicrovascular endothelial cells is regulated by the inositol-phosphate signaling pathway.” J Cell Physiol 169(3): 455-67.). Purity of HCEC cultures generated by these procedures was routinely assessed by the immunocytochemical staining for Factor VIII-related antigen and the lack of staining for smooth muscle β-actin, and is estimated to be >95%. The morphological, phenotypic, biochemical and functional characteristics of these HCEC cultures have been described in detail previously (Muruganandam, A., L. M Herx, et al. (1997). “Development of immortalized human cerebromicrovascular endothelial cell line as an in vitro model of the human blood-brain barrier.” Faseb J 11(13): 1187-97).
HCEC were seeded (8×10^4 cells) on a semi-solid basement membrane matrix, Matrigel™ (Collaborative Biomedical Products, Bedford, Mass.)-coated 24-well plates and exposed to serum-free media containing various treatments. […] Confocal apertures for each recorded wavelength were adjusted to a full width half maximum of 20 μm. […] Eight to 32 individual optical sections were collected and the average was calculated. […]

[4] = target: T2, t-PA-mediated plasminogen activation (Homo sapiens, UniProt P00750); assay: t-PA-dependent conversion of plasminogen to plasmin, effect of S100A4 (Example 11); format: biochemical; conditions: with or without 2.5 μM S100A4; for Vmax: 150 nM plasminogen, 5 nM t-PA
T2 construct: purchased Calbiochem
T2 sequence (P00750 36-562): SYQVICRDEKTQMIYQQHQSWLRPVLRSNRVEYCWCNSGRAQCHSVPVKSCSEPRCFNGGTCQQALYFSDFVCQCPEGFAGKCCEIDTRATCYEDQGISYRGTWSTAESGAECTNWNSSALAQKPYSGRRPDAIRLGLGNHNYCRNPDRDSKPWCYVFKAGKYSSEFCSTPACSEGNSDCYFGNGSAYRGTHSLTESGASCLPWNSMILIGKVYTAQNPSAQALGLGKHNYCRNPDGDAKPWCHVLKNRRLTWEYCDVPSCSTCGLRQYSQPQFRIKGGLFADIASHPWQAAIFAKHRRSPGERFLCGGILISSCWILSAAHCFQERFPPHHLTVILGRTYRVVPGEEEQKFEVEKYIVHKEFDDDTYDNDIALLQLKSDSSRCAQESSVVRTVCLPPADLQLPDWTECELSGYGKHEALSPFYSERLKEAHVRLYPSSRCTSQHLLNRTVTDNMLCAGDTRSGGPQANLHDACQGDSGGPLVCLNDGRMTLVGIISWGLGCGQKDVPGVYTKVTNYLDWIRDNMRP
Method: Non-active plasminogen can be converted to active protease plasmin by tissue type (t-PA) or urokinase type (u-PA) plasminogen activators. Except for its well-known fibrinolytic activity, plasmin also directly and indirectly, by activation of matrix metalloproteinases (MMPs), participates in the degradation of extracellular matrix that is important for the angiogenesis and tumor invasion. The kinetics of t-PA-mediated plasminogen activation was determined by measuring amidolytic activity of the plasmin generated during plasminogen activation. The reaction was performed with the plasmin substrate Chromozyme PL, tosyl-glycyl-prolyl-lysin-4-nitranilide-acetate (Roche) in the final concentration of 125 μM in a buffer consisting of 50 mM Tris-HCl, pH 7.4, 100 mM NaCl, 5 mM of CaCl2 or 5 mM of EGTA, and 150 nM of [Glu] plasminogen (Calbiochem). The reaction was preincubated with or without 2.5 μM S100A4 at 24 C° for 1 h in 96-well plates. The reaction was initiated by addition of t-PA (Calbiochem) up to 5 nM concentration, final volume 100 μl. Kinetic of substrate hydrolysis was measured at 2 min intervals at 405 nm in Spectramax Plus 384 spectrophotometer (Molecular Devices). Analysis of kinetics curves (Vmax, time to Vmax, and initial slope of kinetic data converted to A405 versus time^2) was performed with the help of Softmax PRO program (Molecular Devices).
Kinetics of plasminogen to plasmin conversion consists of three parts. As shown in FIG. #3 curves 1 and 2 for t-PA, during first 1500 s the reaction is second order that corresponds to conversion of plasminogen to plasmin and consequent cleavage of chromogenic substrate by plasmin. The second part of reaction is linear, for which Vmax can be calculated. It starts after total conversion of plasminogen to plasmin and corresponds to cleavage of chromogenic substrate by plasmin with constant rate. In the third part of reaction, after 2700 s, the reaction is slowing down that corresponds to depletion of chromogenic substrate and finally the reaction reaches a plateau when all substrate is cleaved. As follows from the comparison of curves 1 and 2, t-PA along converted plasminogen to plasmin equally efficiently in the presence or absence of calcium. Neither conversion of plasminogen to plasmin took place in the absence of t-PA no S110A4 induced such conversion by itself, curves 5 and 6. In the presence of S100A4 linear part of reaction starts substantially earlier, which means that total conversion of plasminogen to plasmin was accelerated. Kinetic parameters for t-PA along and for combination of t-PA with S100A4 are represented in Table 4. […] S100A4 accelerated conversion of plasminogen to plasmin in calcium independent manner, curves 3 and 4.

[5] = target: T2, t-PA-mediated plasminogen activation; assay: t-PA-mediated plasminogen conversion kinetics with and without S100A4 (Example 12); format: biochemical
Method: as §1
The addition of S100A4 to basal reaction (t-PA plus plasminogen) produced a significant increase in the plasminogen conversion rate. […] The stimulation of the plasminogen conversion by S100A4 was concentration-dependent with the half-maximal effect at 2.4 μM.
The kinetic parameters of t-PA-mediated plasminogen conversion were evaluated in the presence and absence of S100A4 as a function of plasminogen concentrations ranging from 3 nM to 3 μM.

With `CSCC[C@@H](NC(=O)[C@@H](CCC(=O)O)NC(=O)[C@@H](CCCNC(=N)N)NC(=O)[C@@H](Cc1c[nH]c2ccccc12)NC(=O)CNC(=O)[C@@H](C)NC(C)=O)C(=O)N[C@H](Cc1ccc(O)cc1)C(=O)N[C@H](CO)C(=O)N[C@H](C)C(=O)N[C@H](CC(C)C)C(=O)N[C@H](CO)C(=O)N[C@@H](C)C(=O)N[C@@H](CO)C(=O)N[C@H](Cc1ccc(O)cc1)C(=O)N[C@@H](C(=O)N[C@H](CCC(=O)O)C(=O)N[C@H](CCCNC(=N)N)C(=O)N[C@H](CC(C)C)C(N)=O)C(C)C` [SEQ ID 38, Ac-aGwremysalsASyverl-amide] (HELM PEPTIDE1{[ac].[dA].G.[dW].[dR].[dE].[dM].[dY].[dS].[dA].[dL].[dS].A.S.[dY].[dV].[dE].[dR].[dL].[am]}$$$$V2.0) the “effect on S100A4 acceleration at 15 μM peptide” value (S100A4 [1]) was “totally neglected the effect of S100A4” and the IC50 (S100A4 [1]) was 3.5 µM.

`CSCC[C@H](NC(=O)[C@H](Cc1ccc(O)cc1)NC(=O)[C@H](CO)NC(=O)[C@H](C)NC(=O)[C@H](CC(C)C)NC(=O)[C@H](CO)NC(=O)[C@H](C)NC(=O)CNC(=O)[C@H](Cc1ccc(O)cc1)NC(=O)[C@@H](NC(=O)[C@H](CCC(=O)O)NC(=O)[C@H](CCCNC(=N)N)NC(=O)[C@H](CC(C)C)NC(=O)CNC(=O)[C@H](C)NC(=O)c1ccc2c(c1)C(=O)OC21c2ccc(O)cc2Oc2cc(O)ccc21)C(C)C)C(=O)N[C@@H](CCC(=O)O)C(=O)N[C@@H](CCCNC(=N)N)C(=O)N[C@@H](Cc1c[nH]c2ccccc12)C(N)=O` [SEQ ID NO 7, Fam-AGLREVYGASLASYMERW-amide] (HELM PEPTIDE1{[O=C1OC2(c3ccc(O)cc3Oc3cc(O)ccc32)c2ccc(C(=O)[*:2])cc21].A.G.L.R.E.V.Y.G.A.S.L.A.S.Y.M.E.R.W.[am]}$$$$V2.0) was tested, and the Kd (S100A4 [2]; 20 nM peptide, S100A4 0-10000 nM, 1 h room temperature, TBS-EGTA or TBS-Ca, read-out: apparent binding constant of peptide binding to S100A4) was 0.236 µM.

With “Ac-AGLREVYGASLASYMERW-NH2 [SEQ ID 6, Ac-AGLREVYGASLASYMERW-amide]” the “inhibition of S100A4-induced formation of capillary-like tubes” value [3] was “completely inhibit”, the “effect on S100A4 acceleration at 15 μM peptide” value (S100A4 [1]) was “totally neglected the effect of S100A4” and the IC50 (S100A4 [1]) was 6 µM.

“Fam-aGlrevyGASlASymerw-amide [SEQ ID NO 9]” was tested, and the “change of fluorescence polarization upon adding S100A4” value (S100A4 [2]) was “No change of fluorescence polarization has been detected”.

In the case of “Fam-aGwremysalsASyverl-amide [SEQ ID NO 10]”, the “change of fluorescence polarization upon adding S100A4” value (S100A4 [2]) is reported as “No change of fluorescence polarization has been detected”.

For “t-PA: tissue type plasminogen activator (Calbiochem); basal reaction with plasminogen”, the Vmax ([4]; Ca (5 mM CaCl2)) was 7.152 ± 0.130 ΔA405/t(min) * 1000, the “Slope (initial rate of plasmin generation)” value ([4]; Ca (5 mM CaCl2)) was 0.078 ΔA405/t^2(min^2) * 1000 and 0.078 ± 0.007 ΔA405/t^2(min^2) * 1000 and the “Time to Vmax” value ([4]; Ca (5 mM CaCl2)) was 2200 s and 2200 ± 69 s. For the same molecule, the Vmax ([4]; EGTA (5 mM)) was 8.589 ± 0.342 ΔA405/t(min) * 1000, the “Slope (initial rate of plasmin generation)” value ([4]; EGTA (5 mM)) was 0.080 ± 0.008 ΔA405/t^2(min^2) * 1000 and the “Time to Vmax” value ([4]; EGTA (5 mM)) was 2102 ± 69 s. The Vmax ([5]; plasminogen 3 nM to 3 μM, presence of EGTA) was 1.18, the Km ([5]; plasminogen 3 nM to 3 μM, presence of EGTA, read-out: Km) was 0.429 µM and the Km ([5]; plasminogen 3 nM to 3 μM, read-out: Km of the t-PA-mediated plasminogen conversion) was 0.429 µM. For the same molecule, the “Increase in t-PA activity” value ([5]; presence of EGTA) was 1.
